{"source": "paper PMC9695703", "about": "“Selection of an Aptamer against the Enzyme 1-deoxy-D-xylulose-5-phosphate Reductoisomerase from Plasmodium falciparum”", "key": {"[1]": {"biological_target": "T1, EcDXR-6His (Escherichia coli, UniProt P45568 1-398)", "T1 sequence": "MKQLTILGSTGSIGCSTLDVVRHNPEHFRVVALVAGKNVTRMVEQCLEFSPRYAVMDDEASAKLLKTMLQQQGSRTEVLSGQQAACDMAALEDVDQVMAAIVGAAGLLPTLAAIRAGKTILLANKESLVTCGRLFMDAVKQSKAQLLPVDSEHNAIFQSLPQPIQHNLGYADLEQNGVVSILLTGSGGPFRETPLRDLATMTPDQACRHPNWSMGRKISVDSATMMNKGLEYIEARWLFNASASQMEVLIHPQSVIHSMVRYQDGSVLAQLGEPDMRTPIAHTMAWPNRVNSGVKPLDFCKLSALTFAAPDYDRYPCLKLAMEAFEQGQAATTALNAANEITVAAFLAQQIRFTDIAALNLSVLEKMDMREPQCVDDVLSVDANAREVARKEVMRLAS", "experiment": "bead-based flow cytometry saturation binding; protein on latex beads; Bmax 1.67; Kd: PBS pH 7.4, 60 min, dark, 0.3-5.4 uM aptamer; EMSA: 10 mM NaCl, 0.02% Tween-20, 50 mM HEPES pH 8.0, RT 60 min, 2% agarose 0.5x TB", "details": "protein: recombinant; tags: C-term 6xHis; label: 5' 6FAM; folded 90/5/37 C before use"}, "[2]": {"biological_target": "T2, 6His-GST-PfDXRt-6His (1-deoxy-D-xylulose-5-phosphate reductoisomerase) (Plasmodium falciparum, UniProt Q8IKG4 73-488)", "T2 sequence": "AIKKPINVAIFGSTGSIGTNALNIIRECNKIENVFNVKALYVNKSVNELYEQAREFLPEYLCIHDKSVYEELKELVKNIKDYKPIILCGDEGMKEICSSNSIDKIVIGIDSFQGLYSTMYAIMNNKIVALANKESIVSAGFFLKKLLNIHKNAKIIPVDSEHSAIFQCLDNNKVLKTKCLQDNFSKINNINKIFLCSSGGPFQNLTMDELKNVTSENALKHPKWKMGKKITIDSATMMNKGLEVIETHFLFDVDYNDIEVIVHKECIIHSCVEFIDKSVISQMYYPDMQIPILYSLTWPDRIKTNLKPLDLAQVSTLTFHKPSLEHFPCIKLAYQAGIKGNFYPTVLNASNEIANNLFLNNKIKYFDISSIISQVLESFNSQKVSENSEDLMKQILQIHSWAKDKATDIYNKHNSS", "experiment": "bead-based flow cytometry saturation binding; protein on latex beads; Bmax 0.79", "details": "protein: recombinant; tags: N-term 6xHis-GST, C-term 6xHis; label: 5' 6FAM; folded 90/5/37 C before use"}}}
{"binder": "6FAM-D10 (ssDNA) DNA: ATACCAGCTTATTCAATTCACTGCCACACCACGCCCTGCCATCCGCACATCCATCGTGAGATAGTAAGTGCAATCT", "values": [{"measurement": "Kd", "setting": "[1]", "value": "290 ± 90", "unit": "nM"}, {"measurement": "Kd", "setting": "[2]", "value": "260 ± 70", "unit": "nM"}]}
